6 molecules from patent US20140086913A1 (Gilead, published 2014) can be followed below.

Experiment [1] concerns the target human DDR1 (isoform B) stably expressed on HEK293 cells (human) (UniProt Q08345). Description: flow cytometry, HEK293/hDDR1. In general terms: In flow cytometry, cells or beads pass a laser one at a time.
Experiment [2] has as its target DDR1 endogenously expressed on human cancer cell lines (T47D, HCT-116, A431) (human) (UniProt Q08345). Description: flow cytometry, T47D cells.
Experiment [3] shares this target. Description: cell-based or functional assay.
For experiment [4], the target named is T1, human DDR2 stably expressed on HEK293 cells (human, UniProt Q16832 22-855).
T1 construct: whole, on cells; also called hDDR2
T1 sequence (looked up): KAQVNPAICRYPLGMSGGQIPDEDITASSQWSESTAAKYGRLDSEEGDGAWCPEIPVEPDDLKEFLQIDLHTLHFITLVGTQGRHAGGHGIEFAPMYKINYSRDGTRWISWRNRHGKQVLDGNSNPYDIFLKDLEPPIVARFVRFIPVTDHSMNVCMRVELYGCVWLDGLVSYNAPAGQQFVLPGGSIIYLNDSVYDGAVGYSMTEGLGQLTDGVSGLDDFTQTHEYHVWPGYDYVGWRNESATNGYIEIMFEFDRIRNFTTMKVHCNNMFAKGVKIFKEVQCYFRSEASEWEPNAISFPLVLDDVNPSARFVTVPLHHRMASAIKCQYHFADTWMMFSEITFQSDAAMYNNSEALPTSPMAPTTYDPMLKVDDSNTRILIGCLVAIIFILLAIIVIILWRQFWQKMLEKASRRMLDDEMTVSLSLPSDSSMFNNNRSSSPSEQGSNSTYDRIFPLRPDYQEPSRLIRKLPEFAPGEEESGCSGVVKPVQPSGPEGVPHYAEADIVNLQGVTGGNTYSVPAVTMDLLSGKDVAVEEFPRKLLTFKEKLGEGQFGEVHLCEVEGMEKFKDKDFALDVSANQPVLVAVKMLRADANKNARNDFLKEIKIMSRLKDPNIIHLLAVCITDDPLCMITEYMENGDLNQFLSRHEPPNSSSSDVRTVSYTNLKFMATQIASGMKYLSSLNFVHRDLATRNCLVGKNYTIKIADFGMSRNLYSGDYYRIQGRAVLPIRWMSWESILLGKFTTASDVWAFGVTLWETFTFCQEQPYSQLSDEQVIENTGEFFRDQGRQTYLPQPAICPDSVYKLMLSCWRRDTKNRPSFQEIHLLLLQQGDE
Description: flow cytometry, HEK293/hDDR2. A digest of the protocol:
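Anti-DDR1 mAbs or isotype controls (2 μg per 1×10⁶ cells) were incubated with the stably transfected HEK293 cells at 4 °C for 1 hr, then detected with anti-IgG-PE at 4 °C for 1 hr. Binding was read as flow-cytometry MFI, with vector-only HEK293 background subtracted.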

Experiment [5] concerns the target human DDR1 (isoform B) stably expressed on HEK293 cells (human) (UniProt Q08345). Description: flow cytometry, HEK293/human DDR1, normalized to empty-vector cells.
The target in experiment [6] is T2, DDR1ECD-Fc (R&D Systems, Catalog #2396-DR) (human, UniProt Q08345 21-416).
T2 construct: range 21-416; construct as described for the bought immunogen; also called human ECD-DDR1-Fc; Fc-ECD-DR1; not shown: human IgG1, Pro100-Lys330
T2 sequence (Q08345 other isoform, or with tags, fused parts or gaps limits assumed): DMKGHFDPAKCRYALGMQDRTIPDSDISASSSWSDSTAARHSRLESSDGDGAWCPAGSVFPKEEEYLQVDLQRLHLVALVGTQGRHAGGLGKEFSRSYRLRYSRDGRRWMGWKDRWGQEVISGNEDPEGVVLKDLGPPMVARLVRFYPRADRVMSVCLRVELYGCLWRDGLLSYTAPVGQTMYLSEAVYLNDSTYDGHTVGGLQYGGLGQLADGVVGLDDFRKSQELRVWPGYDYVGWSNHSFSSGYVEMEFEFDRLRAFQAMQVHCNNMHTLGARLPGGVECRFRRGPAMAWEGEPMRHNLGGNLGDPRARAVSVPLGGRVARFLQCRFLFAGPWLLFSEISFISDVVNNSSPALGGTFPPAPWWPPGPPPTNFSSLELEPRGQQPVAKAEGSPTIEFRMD
The experiment can be described thus: ELISA.

Experiment [7] addresses DDR1 endogenously expressed on human cancer cell lines (T47D, HCT-116, A431) (human) (UniProt Q08345). Description: flow cytometry, HCT116 cells.
Experiment [8] has as its target T3, human ECD-DDR1-His protein (human, UniProt Q08345 21-416).
T3 construct: also called huDDR1-ECD-His; DDR1ECD-6Xhis; not shown: His tag
Description: ELISA, coated antigen, apparent KD. In outline:
(§1)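 Plates coated overnight at 4° C with 2 μg/mL purified tagged DDR1 ECD protein, BSA-blocked; serially diluted murine anti-DDR1 mAbs bound 1 hr at room temperature, detected with anti-mouse IgG-HRP and TMB (OD 450). Apparent KD taken as C-parameter of 4-parameter logistic fit of OD versus antibody concentration.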
Background: In an ELISA, binding on a coated surface is turned into a signal by an enzyme label.

Experiment [9] addresses T2, DDR1ECD-Fc (R&D Systems, Catalog …). The experiment can be described thus: ELISA, coated antigen, apparent KD. In outline:
as §1

T3 sequence (Q08345 21-416): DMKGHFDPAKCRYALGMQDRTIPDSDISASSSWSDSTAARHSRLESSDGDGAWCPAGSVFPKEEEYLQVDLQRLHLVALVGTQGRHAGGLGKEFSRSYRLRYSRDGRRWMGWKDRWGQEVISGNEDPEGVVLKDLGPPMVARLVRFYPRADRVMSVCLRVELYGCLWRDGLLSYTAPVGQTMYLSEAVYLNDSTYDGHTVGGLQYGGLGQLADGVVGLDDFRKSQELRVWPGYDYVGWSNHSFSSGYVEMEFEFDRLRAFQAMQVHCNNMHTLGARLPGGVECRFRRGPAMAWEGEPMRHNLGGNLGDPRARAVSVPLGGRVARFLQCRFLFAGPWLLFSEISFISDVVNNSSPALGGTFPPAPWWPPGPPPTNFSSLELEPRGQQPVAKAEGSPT

B1: AB2039 (antibody, V domains shown)
VH: EVQLVESGGGLVQPGGSLKFSCAASGFTFSSYGMSWVRQTPDKRLELVAIINSHGFSTYYPDSVKGRFTISRDNAKNTLYLQMSSLKSEDTAIYYCARGGYGNYGMDYWGQGTSVTVSS
VL: DIVLTQSPASLAVSLGQRATISCRASESVDSYGNSFMHWYQQKVGQPPKLLIFRASNIESGIPARFSGSGSRTDFTLTINSVEADDVATYYCQQSNEAPYTFGGGTKLEIKR
notes: mouse hybridoma mAb; also called AB0039
As for B1, the MFI in [1] worked out at 8020 MFI; in experiment [2], 4460 MFI; in experiment [4], 143 MFI; in [5], 8020 MFI; in [7], 1490 MFI. In [3], the EC50, DDR1 phospho-specific ELISA (T47D) came out at 0.43 nM. The molecule also yielded an EC50, cluster formation assay (A431 cells) in experiment [3] of 0.93 nM. Besides, the Maximal inhibition, DDR1 phospho-specific ELISA (T47D) in experiment [3] is 100%. This molecule displayed an NPI of cluster formation at 66 nM (A431 cells) in [3] of 103%. Moreover, the Kd amounted to 0.346 nM in experiment [6], 0.205 nM in [8] and 0.346 nM in experiment [9].

B2: AB2078 (antibody, V domains shown)
VH: EIQLQQSGPELVNPGASVKVSCKASGYSFTDYNMYWVKQSHGKSLEWIGYIDPYNGGTSYNQKFKGKATLTVDKSSSTAFMHLNSLTSEDSAVYYCAREYYGSRLWYFDVWGAGTAVTVSS
VL: DIVMTQSPSSLAMSVGQKVTMSCKSSQSLLNRNNQKNYLAWYQQKPGQSPKLLVYFASTRESGVPDRFIGSGSGTDFTLTLSSVRAEDLAENFCQQHYSTPFTFGSGTRLEIKR
notes: mouse hybridoma mAb
For the molecule B2, the MFI in experiment [1] was 7490 MFI; in experiment [2] it was 4750 MFI; in experiment [4], 380 MFI; in experiment [5] it was 7490 MFI; in experiment [7], 1480 MFI. This molecule returned an EC50, DDR1 phospho-specific ELISA (T47D) in experiment [3] of 0.39 nM. For the same molecule, in experiment [3], the EC50, cluster formation assay (A431 cells) is 1.82 nM. Also, the Maximal inhibition, DDR1 phospho-specific ELISA (T47D) in experiment [3] is 100%. Further, the NPI of cluster formation at 66 nM (A431 cells) in [3] was 123%. The Kd turned out to be 0.374 nM in [6], 0.554 nM in experiment [8] and 0.374 nM in experiment [9].

B3: AB2004 (antibody, V domains shown)
VH: DVHLQESGPDLVKPSQSLSLTCTVTDYSITSGYGWHWIRQFPGNKLEWMGYIHYGGSTKYNSSLKSRISITRDTSKNQFFLQLKSVTTDDTGTYYCATSGNYGFAYWGQGTLVTVSA
VL: DIVLTQSPTSLAVSLGQRATMSCRASESVDDYGTSFMHWYQQKPGQPPKLLIYRASNLESGIPARFSGSGSRADFTLSINPVEPDDVATYYCQQSNEDPFTFGSGTKLEIKR
notes: mouse hybridoma mAb
For the molecule B3, the MFI turned out to be 14400 MFI in [1]; 5990 MFI in experiment [2]; 289 MFI in experiment [4]; 14400 MFI in experiment [5]; 1490 MFI in experiment [7]. In experiment [3], this molecule registered an EC50, DDR1 phospho-specific ELISA (T47D) of 0.43 nM. Besides, in [3], the EC50, cluster formation assay (A431 cells) worked out at 2.28 nM. Further, the Maximal inhibition, DDR1 phospho-specific ELISA (T47D) in experiment [3] turned out to be 100%. The NPI of cluster formation at 66 nM (A431 cells) in experiment [3] is 110%. For the same molecule, the Kd in experiment [6] turned out to be 0.154 nM; in experiment [8], 0.181 nM; in experiment [9] it was 0.154 nM.

B4: AB2041 (antibody, V domains shown)
VH: QVQLHQSGSELAKPGASVKMSCKASGYIFTTYWIHWLKQRPGQGLEWIGFINPDTDYTEYNQKFKDKATLTADKSSNTAYVQLSSLTSEDSAVYYCARGNYGYDGLVYWGLGTLVTVSA
VL: SIVMTQTPKFLLVSAGDRVTITCKASQSVSTDVAWYQQKPGQSPKLLIYYASNRYTGVPDRFTGSGYGTDFTFTISTVQAEDLAVYFCQQDYNSYTFGGGTKLEIKR
notes: mouse hybridoma mAb
As to B4, the MFI in experiment [1] is 12500 MFI; in experiment [2] it was 2210 MFI; in experiment [4], 265 MFI; in experiment [5], 12500 MFI; in experiment [7], 1270 MFI. Further, the Kd in experiment [6] is 0.561 nM; in [8] it was 0.617 nM; in [9], 0.561 nM.

B5: AB2010 (antibody, V domains shown)
VH: QVQLKQSGPGLVQPSQSLSITCTVSGFSFTGYGIHWVRQSPGKGLEWLGVIWSGGITDYNAAFISRLSISMDSSKGQVFFKMNSLQANDTAIYYCARRSTTVVADYAMDYWGQGTSVTVSS
VL: SIVMTQTPKFLLVSAGDRVTITCKASQSVSNDVAWYQQKPGQSPKLLIYYASNRYTGVPDRFTGSGYGTDFTFTINTVQAEDLAVYFCQQDYTSPLTFGAGTKLELKR
notes: mouse hybridoma mAb
As for B5, the MFI was found to be 17800 MFI in experiment [1], 6730 MFI in [2], 647 MFI in experiment [4] and 1730 MFI in experiment [7]. This molecule gave an EC50, DDR1 phospho-specific ELISA (T47D) in experiment [3] of 0.63 nM. This molecule also showed an EC50, cluster formation assay (A431 cells) in experiment [3] of 4.84 nM. The same molecule displayed a Maximal inhibition, DDR1 phospho-specific ELISA (T47D) in experiment [3] of 100%. Moreover, the NPI of cluster formation at 66 nM (A431 cells) in [3] was found to be 108%. Moreover, the Kd in experiment [8] is 0.398 nM; in experiment [9], 0.431 nM.

B6: AB2092 (antibody, V domains shown)
VH: QIQLVQSGPELKKSGETVKISCKASGYTFTDYGMNWVKQAPGKGLKWMGWINTYTGKSTYADDFKGRFAFSLETSASTTYLQITNLKNEDMATYFCARWADYFGSSYLFASWGQGTLVTVSA
VL: DVLMTQTPLSLPVSLGDQASISCRSSQSIVHSDGNTYLEWYLQKPGQSPKLLIYKVSNRFSGVPDRFSGSGSGTDFTLKISRVEAEDLGIYYCFQGSHVPWTFGGGTKLEIKR
notes: mouse hybridoma mAb
Take B6: the MFI in [1] is 6020 MFI; in [2], 3880 MFI; in [4] it was 133 MFI; in [5] it was 6020 MFI; in experiment [7], 1310 MFI. In addition, the values for the Kd in experiment [6], in [8] and in experiment [9] were 0.287 nM, 0.275 nM and 0.287 nM, respectively.
